According to paper PMC6852375 (The Febs Journal, 2019):

B1: RANKL_WT (mouse soluble RANKL, aa 160–316) (ligand, UniProt O35235 160-316, looked up)
chain: EAQPFAHLTINAASIPSGSHKVTLSSWYHDRGWAKISNMTLSNGKLRVNQDGFYYLYANICFRHHETSGSVPTDYLQLMVYVVKTSIKIPSSHNLMKGGSTKNWSGNSEFHFYSINVGGFFKLRAGEEISIQVSNPSLLDPDQDATYFGAFKVQDID
B2: RANKL_Q236A (ligand, mouse, UniProt O35235 160-316, looked up)
chain: EAQPFAHLTINAASIPSGSHKVTLSSWYHDRGWAKISNMTLSNGKLRVNQDGFYYLYANICFRHHETSGSVPTDYLALMVYVVKTSIKIPSSHNLMKGGSTKNWSGNSEFHFYSINVGGFFKLRAGEEISIQVSNPSLLDPDQDATYFGAFKVQDID
B3: RANKL_Q236D (ligand, mouse, UniProt O35235 160-316, looked up)
chain: EAQPFAHLTINAASIPSGSHKVTLSSWYHDRGWAKISNMTLSNGKLRVNQDGFYYLYANICFRHHETSGSVPTDYLDLMVYVVKTSIKIPSSHNLMKGGSTKNWSGNSEFHFYSINVGGFFKLRAGEEISIQVSNPSLLDPDQDATYFGAFKVQDID
B4: RANKL_Q236H (ligand, mouse, UniProt O35235 160-316, looked up)
chain: EAQPFAHLTINAASIPSGSHKVTLSSWYHDRGWAKISNMTLSNGKLRVNQDGFYYLYANICFRHHETSGSVPTDYLHLMVYVVKTSIKIPSSHNLMKGGSTKNWSGNSEFHFYSINVGGFFKLRAGEEISIQVSNPSLLDPDQDATYFGAFKVQDID
B5: RANKL_Q236K (ligand, mouse, UniProt O35235 160-316, looked up)
chain: EAQPFAHLTINAASIPSGSHKVTLSSWYHDRGWAKISNMTLSNGKLRVNQDGFYYLYANICFRHHETSGSVPTDYLKLMVYVVKTSIKIPSSHNLMKGGSTKNWSGNSEFHFYSINVGGFFKLRAGEEISIQVSNPSLLDPDQDATYFGAFKVQDID
B6: RANKL_Q236N (ligand, mouse, UniProt O35235 160-316, looked up)
chain: EAQPFAHLTINAASIPSGSHKVTLSSWYHDRGWAKISNMTLSNGKLRVNQDGFYYLYANICFRHHETSGSVPTDYLNLMVYVVKTSIKIPSSHNLMKGGSTKNWSGNSEFHFYSINVGGFFKLRAGEEISIQVSNPSLLDPDQDATYFGAFKVQDID
B7: RANKL_Q236P (ligand, mouse, UniProt O35235 160-316, looked up)
chain: EAQPFAHLTINAASIPSGSHKVTLSSWYHDRGWAKISNMTLSNGKLRVNQDGFYYLYANICFRHHETSGSVPTDYLPLMVYVVKTSIKIPSSHNLMKGGSTKNWSGNSEFHFYSINVGGFFKLRAGEEISIQVSNPSLLDPDQDATYFGAFKVQDID
B8: RANKL_Q236S (ligand, mouse, UniProt O35235 160-316, looked up)
chain: EAQPFAHLTINAASIPSGSHKVTLSSWYHDRGWAKISNMTLSNGKLRVNQDGFYYLYANICFRHHETSGSVPTDYLSLMVYVVKTSIKIPSSHNLMKGGSTKNWSGNSEFHFYSINVGGFFKLRAGEEISIQVSNPSLLDPDQDATYFGAFKVQDID

How the values were obtained:
[1] = molecular target: T1, Murine OPG-Fc (mouse, UniProt O08712 22-401); experiment: SPR
T1 sequence (looked up): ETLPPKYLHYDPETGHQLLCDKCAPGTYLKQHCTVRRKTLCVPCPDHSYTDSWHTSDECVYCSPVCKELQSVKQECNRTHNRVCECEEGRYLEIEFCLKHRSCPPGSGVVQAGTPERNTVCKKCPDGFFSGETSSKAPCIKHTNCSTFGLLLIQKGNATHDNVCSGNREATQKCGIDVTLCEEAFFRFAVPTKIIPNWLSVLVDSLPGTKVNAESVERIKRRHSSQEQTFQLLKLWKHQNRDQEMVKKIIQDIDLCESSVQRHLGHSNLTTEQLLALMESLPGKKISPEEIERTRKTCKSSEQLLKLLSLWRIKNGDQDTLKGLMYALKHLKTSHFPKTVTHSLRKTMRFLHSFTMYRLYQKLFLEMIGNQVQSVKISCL

[2] = molecular target: T2, Murine RANK-Fc (mouse, UniProt O35305 31-214); experiment: SPR
T2 sequence (looked up): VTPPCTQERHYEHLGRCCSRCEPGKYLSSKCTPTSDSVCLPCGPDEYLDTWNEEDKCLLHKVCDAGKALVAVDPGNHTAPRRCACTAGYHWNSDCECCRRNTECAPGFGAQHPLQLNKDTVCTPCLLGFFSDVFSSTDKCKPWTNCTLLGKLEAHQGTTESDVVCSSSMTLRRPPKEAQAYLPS

[3] = molecular target: T1, Murine OPG-Fc; experiment: ELISA

Row | Binder | Kd [1] [nM] | koff [1] [s⁻¹] | kon [1] [M⁻¹ s⁻¹] | Kd [2] [nM] | koff [2] [s⁻¹] | kon [2] [M⁻¹ s⁻¹] | binding relative to RANKL_WT [3] [%]
1 | B1 | 0.0043 ± 0.0016 | 7e-05 | 1.8e+07 | 0.0119 ± 0.0015 | 0.0001 | 8.4e+06 | 
2 | B2 | 0.0205 ± 0.0022 | 0.00033 | 1.6e+07 | 0.0215 ± 0.0066 | 0.00018 | 8.9e+06 | 
3 | B3 | 0.112 ± 0.0244 | 0.0007 | 6e+06 | 0.015 ± 0.0032 | 9e-05 | 6.4e+06 | 25
4 | B4 | 0.0166 ± 0.0016 | 0.00022 | 1.3e+07 | 0.0187 ± 0.0028 | 0.00013 | 6.7e+06 | 
5 | B5 | 0.143 ± 0.0446 | 0.00146 | 1.1e+07 | 0.119 ± 0.0105 | 0.00095 | 8e+06 | 
6 | B6 | 0.0207 ± 0.0037 | 0.00031 | 1.5e+07 | 0.0221 ± 0.0029 | 0.00017 | 7.9e+06 | 
7 | B7 | 0.0213 ± 0.0082 | 0.00022 | 1.1e+07 | 0.0198 ± 0.006 | 0.00012 | 6.1e+06 | 
8 | B8 | 0.0233 ± 0.0045 | 0.00031 | 1.4e+07 | 0.0249 ± 0.0051 | 0.00018 | 7e+06 | 
